Assay [1] deals with T1, Siglec-10 expressed on human donor-derived macrophages (human, UniProt Q96LC7 17-697).
T1 sequence (looked up): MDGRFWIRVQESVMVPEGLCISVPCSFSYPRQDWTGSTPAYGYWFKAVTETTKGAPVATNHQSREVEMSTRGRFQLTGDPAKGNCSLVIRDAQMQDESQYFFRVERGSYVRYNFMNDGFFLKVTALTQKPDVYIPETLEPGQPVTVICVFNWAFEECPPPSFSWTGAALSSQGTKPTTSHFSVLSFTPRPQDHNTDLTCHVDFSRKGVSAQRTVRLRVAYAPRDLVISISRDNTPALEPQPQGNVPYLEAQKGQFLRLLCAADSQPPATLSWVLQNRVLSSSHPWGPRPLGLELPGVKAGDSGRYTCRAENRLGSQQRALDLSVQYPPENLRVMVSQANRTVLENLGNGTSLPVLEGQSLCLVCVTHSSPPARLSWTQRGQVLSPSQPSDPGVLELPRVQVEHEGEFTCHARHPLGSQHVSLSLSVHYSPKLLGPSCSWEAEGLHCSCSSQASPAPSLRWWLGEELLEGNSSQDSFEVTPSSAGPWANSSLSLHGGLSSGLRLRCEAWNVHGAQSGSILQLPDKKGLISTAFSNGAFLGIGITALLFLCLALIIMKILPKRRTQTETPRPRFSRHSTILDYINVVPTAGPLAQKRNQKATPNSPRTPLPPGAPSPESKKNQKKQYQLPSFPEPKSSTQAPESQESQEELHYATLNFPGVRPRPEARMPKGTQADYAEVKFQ
Briefly: cell-based or functional assay.

In the next assay the target is T2, recombinant Siglec5-Fc (human, UniProt O15389 17-434, limits assumed).
T2 construct: Bought reagent; not shown: human Fc
T2 sequence (looked up): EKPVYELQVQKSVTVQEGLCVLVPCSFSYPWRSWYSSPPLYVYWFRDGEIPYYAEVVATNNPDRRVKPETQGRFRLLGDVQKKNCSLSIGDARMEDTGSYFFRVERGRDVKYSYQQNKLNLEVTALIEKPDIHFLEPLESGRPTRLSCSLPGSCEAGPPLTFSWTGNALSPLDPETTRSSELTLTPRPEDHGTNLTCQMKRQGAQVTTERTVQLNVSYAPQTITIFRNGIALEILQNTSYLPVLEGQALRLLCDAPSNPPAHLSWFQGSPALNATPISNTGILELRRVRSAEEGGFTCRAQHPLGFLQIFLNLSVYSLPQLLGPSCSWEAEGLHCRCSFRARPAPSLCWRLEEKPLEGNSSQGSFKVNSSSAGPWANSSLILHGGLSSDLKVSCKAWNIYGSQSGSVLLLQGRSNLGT
Nature of the assay: flow cytometry, Fc-fusion on MCF-7 cells, anti-human Fc detection. The protocol:
Siglec10 has been reported to interact with the highly sialylated form of CD24. […] Indeed, we observed that CD24 deletion alone is insufficient to completely abrogate Siglec-10-Fc binding in the presence of surface sialylation (FIG. 15a,b).
Neuraminidase treatment and recombinant Siglec binding assay. MCF-7 cells were treated with either neuraminidase (from Vibrio cholerae, Roche) (1×10⁶ cells/100 U/mL) or neuraminidase that was heat inactivated for 15 min at 95° C. prior to incubation for 1 h at 37° C. in serum-free medium, after which reactions were quenched with serum prior to analysis. Recombinant Siglecs (10, 5, and 9) were purchased as human Fc-fusion proteins from R&D Systems. Binding of recombinant Siglecs versus human IgG1 control was assayed at a concentration of 1×10⁵ cells/1 mg/mL at 37° C. for 1 h, in the absence of EDTA. Cells were stained with a fluorescently-conjugated anti-human Fc antibody (Biolegend) to enable the measurement of recombinant Siglec binding by flow cytometry.
For orientation: A flow cytometer gives signals particle by particle.

Ends that are not written are not given here.

B1: CD24 expressed on human cancer cells (MCF-7 and other CD24+ cells) (ligand, UniProt P25063 27-59, looked up)
chain: SETTTGTSSNSSQSTSNSGLAPNPTNATTKAAG
modifications: also: heavily glycosylated, sialylated, GPI-anchored
notes: whole, on cells; also called Small Cell Lung Carcinoma Cluster 4 Antigen
With B1, the “phagocytosis of CD24-expressing human tumors” value in assay [1] is at most 13 fold. For the same molecule, in the assay with recombinant Siglec5-Fc, the binding result is given as “no binding (tested: 1×10^5 cells/1 mg/mL)”.
